In paper PMC10144703, “Molecular Mechanism of Sirtuin 1 Inhibition by Human Immunodeficiency Virus 1 Tat Protein” (Life, 2023) one finds inhibition of mini-Sirt1 in the FdL assay; IC50 data, which are given here for one molecule.

Where no end group is shown, it is not given here.

In the experiment the target is human mini-Sirt1 (aa 183-505-(GGGS)2-641-665) (human) (UniProt Q96EB6).
human mini-Sirt1 (aa 183-505-(GGGS)2-641-665) (human), sequence (Q96EB6 other isoform, or with tags, fused parts or gaps): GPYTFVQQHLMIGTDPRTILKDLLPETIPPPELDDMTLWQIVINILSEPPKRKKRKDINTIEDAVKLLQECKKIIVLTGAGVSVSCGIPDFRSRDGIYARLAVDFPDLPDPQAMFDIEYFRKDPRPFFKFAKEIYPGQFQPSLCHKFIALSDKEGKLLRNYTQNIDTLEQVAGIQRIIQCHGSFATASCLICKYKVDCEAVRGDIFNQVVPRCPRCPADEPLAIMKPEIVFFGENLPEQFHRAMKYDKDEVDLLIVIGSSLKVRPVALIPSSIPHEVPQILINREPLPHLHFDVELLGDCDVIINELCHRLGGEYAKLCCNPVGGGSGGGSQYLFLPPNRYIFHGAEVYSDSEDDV

Regarding SYGRKKRRQ (not fully specified) [Tat-46–54 (non-acetylated)], the inhibition of mini-Sirt1 in the FdL assay; IC50 was 131 µM.
